The text below walks through data of the Immune Epitope Database (IEDB).

One may read the IC50 as the concentration that inhibits the measured activity by half.

Test [1] addresses HLA-A*11:01. Description: IEDB peptide-MHC binding, cellular MHC/competitive/fluorescence; ≥ and ≤ were set here for values at or beyond the usual limits of such assays. The following applies: source organism: Hepatitis B virus.
Test [2] deals with HLA-A*02:06. The experiment in a line: IEDB peptide-MHC binding, purified MHC/competitive/radioactivity; ≥ and ≤ were set here for values at or beyond the usual limits of such assays.
For test [3], the target named is HLA-A*02:01. The test is described as above.
In test [4] the target is HLA-A*31:01. The description is as above. To be noted: source organism: Hepatitis B virus.
Test [5] addresses HLA-A*02:03. Described as above.
The target of test [6] is HLA-A*02:02. The test is described as above.
For test [7], the target named is HLA-A*68:02. The test is described as above.
Test [8] concerns the target HLA-A*03:01. The description is as above. The following applies: source organism: Hepatitis B virus.
The target in test [9] is HLA-A*68:01. The test is described as above. The following applies: source organism: Hepatitis B virus.
For test [10], the target named is HLA-A*30:02. The experiment in a line: IEDB peptide-MHC binding, cellular MHC/competitive/fluorescence; ≥ and ≤ were set here for values at or beyond the usual limits of such assays. The following applies: source organism: Vaccinia virus WR.
For test [11], the target named is HLA-A*29:02. The test is described as above. The following applies: source organism: Vaccinia virus WR.
In test [12] the target is HLA-A*26:01. The test is described as above. To be noted: source organism: Vaccinia virus WR.
The target in test [13] is HLA-A*01:01. The description is as above. The following applies: source organism: Vaccinia virus WR.
Test [14] concerns the target HLA-A*24:02. The description is as above. The following applies: source organism: Vaccinia virus WR.
Test [15] has as its target HLA-A*23:01. Described as above. The following applies: source organism: Vaccinia virus WR.
For test [16], the target named is HLA-A*02:03. The test is described as above. To be noted: source organism: Vaccinia virus WR.
For test [17], the target named is HLA-A*02:02. Described as above.
Test [18] deals with HLA-A*68:02. The test is described as above. The following applies: source organism: Vaccinia virus WR.
In test [19] the target is HLA-A*24:02. The experiment in a line: IEDB peptide-MHC binding, purified MHC/competitive/radioactivity; ≥ and ≤ were set here for values at or beyond the usual limits of such assays. The following applies: source organism: Vaccinia virus WR.
In test [20] the target is HLA-A*02:01. The experiment in a line: IEDB peptide-MHC binding, cellular MHC/competitive/fluorescence; ≥ and ≤ were set here for values at or beyond the usual limits of such assays. The following applies: source organism: Vaccinia virus WR.
For test [21], the target named is HLA-A*23:01. The experiment in a line: IEDB peptide-MHC binding, purified MHC/competitive/radioactivity; ≥ and ≤ were set here for values at or beyond the usual limits of such assays. To be noted: source organism: Vaccinia virus WR.
The target in test [22] is HLA-A*68:01. Description: IEDB peptide-MHC binding, cellular MHC/competitive/fluorescence; ≥ and ≤ were set here for values at or beyond the usual limits of such assays. To be noted: source organism: Hepatitis B virus.
Where [23] appears, read: source organism: Hepatitis B virus.
Setting [24] is: source organism: Vaccinia virus WR.

FLFILLLCLI: the IC50 in test [1] turned out to be 9.73 µM; in test [2] (setting [23]), 0.934 µM; in test [3] (setting [23]), 0.135 µM; in [4] it was 0.215 µM; in test [5] (setting [23]), 1.98 µM; in [6] (setting [23]) it was 0.956 µM. The IC50 was found to be 4.5 µM in test [7] (setting [23]), 0.716 µM in [8] and 3.69 µM in test [9].

As for CQCTVQEFI, the concentration for half-maximal inhibition (IC50) in [10] is no less than 70 µM; in test [11] it was 20.5 µM; in test [12] it was 24.8 µM; in test [13], 28.5 µM; in test [14] it was 29 µM; in test [15] it was 44.5 µM. The IC50 in [2] (setting [24]) was found to be 1.13 µM; in test [3] (setting [24]) it was 2.2 µM; in test [5] (setting [24]), 4.79 µM; in test [6] (setting [24]) it was 2.05 µM; in test [7] (setting [24]), 1.73 µM.

On to LQQNNSFII, for which the IC50 in [10] was found to be 40.8 µM; in test [11], 18.6 µM; in test [12], 11.5 µM; in test [13] it was 40.2 µM; in [16], 5.17 µM; in test [17] (setting [24]) it was 11.7 µM. In addition, the IC50 turned out to be 69.8 µM in [18]; 8.91 µM in test [15]; 0.423 µM in test [2] (setting [24]); 1.59 µM in test [3] (setting [24]); 2.36 µM in [19].

As for VQYRILPMII, the IC50 in [10] was 7.85 µM; in test [20] it was 9.33 µM; in test [11], no less than 70 µM; in [12], no less than 70 µM; in [13] it was 34.6 µM; in [17] (setting [24]) it was 10.1 µM. Also, the IC50 was 21.4 µM in [18]; 0.395 µM in [2] (setting [24]); 1.61 µM in [19]; 0.606 µM in test [5] (setting [24]); 0.567 µM in test [21].

Take FLFILLLCL: the IC50 in test [1] amounted to 19 µM; in test [17] (setting [23]) it was 7.02 µM; in test [22], 26.9 µM; in [2] (setting [23]), 1.78 µM; in test [3] (setting [23]), 0.213 µM; in test [4] it was 1.47 µM. Moreover, the IC50 in test [5] (setting [23]) is 1.57 µM; in test [7] (setting [23]) it was 1.2 µM; in [8], 0.664 µM.

In the case of VQTIVFIWFI, the IC50 in test [10] was 13.3 µM; in test [11] it was 20.3 µM; in test [12] it was 16 µM; in [13], 5.13 µM; in [14], no less than 70 µM; in test [15], 32.8 µM. Besides, the IC50 in [3] (setting [24]) worked out at 0.952 µM.

As for FIIFLFILLL, the IC50 in [1] worked out at 7.47 µM; in test [2] (setting [23]), 1.42 µM; in [3] (setting [23]) it was 0.105 µM; in [4] it was 0.692 µM; in [5] (setting [23]) it was 0.181 µM; in [6] (setting [23]), 0.441 µM. In addition, the half-inhibitory concentration (IC50) was 0.737 µM in test [7] (setting [23]), 0.139 µM in test [8] and 3.7 µM in test [9].

For the sequence QQFANVISKI, the IC50 is 9.29 µM in test [10]; 7.32 µM in test [20]; no less than 70 µM in test [11]; no less than 70 µM in [12]; no less than 70 µM in [13]; no less than 70 µM in [14]. Further, the IC50 in [15] was 12.2 µM; in [2] (setting [24]), 0.863 µM; in test [5] (setting [24]), 0.0017 µM; in test [6] (setting [24]) it was 0.051 µM; in [7] (setting [24]), 1.05 µM.

For the sequence YQNEVTPEYI, the IC50 in test [10] was 8.74 µM; in [11], 19.4 µM; in [12] it was no less than 70 µM; in test [13], no less than 70 µM; in [14] it was no less than 70 µM; in test [18] it was 8.57 µM. Moreover, the IC50 in test [15] amounted to 26.9 µM; in [2] (setting [24]), 0.0026 µM; in [3] (setting [24]), 0.0081 µM; in [5] (setting [24]), 0.00021 µM; in test [6] (setting [24]) it was 0.0027 µM.
